The experiment concerns the target T1, GFP-TBK1 (UniProt Q9UHD2 1-729).
T1 construct: TBK1, insect codon optimized gene from GenScript; source: Sf9, purified (Glutathione Sepharose, TEV cleavage, Superdex 200)
Description: microscopy-based bead protein-protein interaction assay; GST-4xUb (10 uM) on Glutathione Sepharose beads with OPTN S177D S473D 500 nM, GFP-TBK1 500 nM and PI3Kc1-mCh 200 nM; 25 mM TRIS-Cl pH 7.5, 150 mM NaCl, 1 mM DTT; 30 min, confocal. As to conditions: both partners purified.

B1: OPTN S2D (S177D, S473D) (natural protein, UniProt Q96CV9 1-577, looked up)
chain: MSHQPLSCLTEKEDSPSESTGNGPPHLAHPNLDTFTPEELLQQMKELLTENHQLKEAMKLNNQAMKGRFEELSAWTEKQKEERQFFEIQSKEAKERLMALSHENEKLKEELGKLKGKSERSSEDPTDDSRLPRAEAEQEKDQLRTQVVRLQAEKADLLGIVSELQLKLNSSGSSEDDFVEIRMAEGEAEGSVKEIKHSPGPTRTVSTGTALSKYRSRSADGAKNYFEHEELTVSQLLLCLREGNQKVERLEVALKEAKERVSDFEKKTSNRSEIETQTEGSTEKENDEEKGPETVGSEVEALNLQVTSLFKELQEAHTKLSEAELMKKRLQEKCQALERKNSAIPSELNEKQELVYTNKKLELQVESMLSEIKMEQAKTEDEKSKLTVLQMTHNKLLQEHNNALKTIEELTRKESEKVDRAVLKELSEKLELAEKALASKQLQMDEMKQTIAKQEEDLETMTILRAQMEVYCDDFHAERAAREKIHEEKEQLALQLAVLLKENDAFEDGGRQSLMEMQSRHGARTSDSDQQAYLVQRGAEDRDWRQQRNIPIHSCPKCGEVLPDIDTLQIHVMDCII
notes: optineurin (OPTN), TBK1 phospho-mimetic form; pGST2-GST-TEV-OPTN(S177D S473D), derived from vectors of Chang et al., 2021; also called OPTN S177D S473D; phosphomimetic OPTN S2D; source: E. coli Rosetta pLySS, purified (Glutathione Sepharose, TEV cleavage, Superdex 200); not shown: GST, N-terminal, cleaved
Turning to B1, the binding result is “binds”.

The values are drawn from article doi:10.1101/2022.08.14.503930 (bioRxiv, 2022).
